The text below walks through data of paper PMC9905591, “A single point mutation expands the applicability of ostreolysin A6 in biomedicine” (Scientific Reports, 2023).

The target of this experiment is T1, Ostreolysin A6 (Pleurotus ostreatus, UniProt P83467 1-138).
T1 sequence: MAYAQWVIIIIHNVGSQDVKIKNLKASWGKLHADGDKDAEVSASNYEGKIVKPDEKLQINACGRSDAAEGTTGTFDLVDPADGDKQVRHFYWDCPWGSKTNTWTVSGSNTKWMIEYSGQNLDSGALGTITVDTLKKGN
The experiment can be described thus: cell-based or functional assay.

B1: Δ48PlyB (pleurotolysin B) (domain or fragment, Pleurotus ostreatus, UniProt Q5W9E8 49-523, looked up)
chain: SQAGDTLNDVIQDPTRRNKLINDNNLLKGIIMGRDGPVPSSRELIVRPDTLRAIINNRATIETTTMEAEFTETLMESNYNSASVKVSAPFITANSEYSESSSFKNTETEKSMYTSSRYLFPQGRIDFTTPDSGFDDVIKLSPQFTSGVQAALAKATGTEKREALQNLFQEYGHVFRTKVHIGGVLSAHTMETFSRSENETEVKQDVKAGLEGAVKGWGGGATAGHGNTQGTITTSQNRKLNVKYIVNGGDYTKIQNTEEWVASTNQSEHWRVIEVTEVTAVADLLPQPIRGQVKDLLKPLLGKWVDVEKVPGLESLPVSVYRPKGAIPAGWFWLGDTADASKALLVKPTLPARSGRNPALTSLHQGSGMTEQPFVDLPQYQYLSTYFGSFAHDTPPGSTLRGLRPDHVLPGRYEMHGDTISTAVYVTRPVDVPFPEDECFDLKSLVRVKLPGSGNPPKPRSALKKSMVLFDSGEK
Turning to B1, the “hazard ratio against buffer, Kaplan-Meier survival of Colorado potato beetle larvae on OlyA6/PlyB-treated leaf discs” value amounted to 3.5.
